Measured values as given in paper PMC3726529 (Nature, 2013).

Columns and labels:
[1] = molecular target: TrkA from Vibrio parahaemolyticus, co-expressed with TrkH (Vibrio parahaemolyticus); test: crystal structure
[2] = molecular target: T1, isolated TrkA (VpTrkA) (Vibrio parahaemolyticus, UniProt Q87KD2); test: co-crystal structure, […] Å; assay type: binding; conditions: 10 mM ATPγS; GXGXXG motif in the N lobe of each RCK domain
T1 sequence (Q87KD2 1-458): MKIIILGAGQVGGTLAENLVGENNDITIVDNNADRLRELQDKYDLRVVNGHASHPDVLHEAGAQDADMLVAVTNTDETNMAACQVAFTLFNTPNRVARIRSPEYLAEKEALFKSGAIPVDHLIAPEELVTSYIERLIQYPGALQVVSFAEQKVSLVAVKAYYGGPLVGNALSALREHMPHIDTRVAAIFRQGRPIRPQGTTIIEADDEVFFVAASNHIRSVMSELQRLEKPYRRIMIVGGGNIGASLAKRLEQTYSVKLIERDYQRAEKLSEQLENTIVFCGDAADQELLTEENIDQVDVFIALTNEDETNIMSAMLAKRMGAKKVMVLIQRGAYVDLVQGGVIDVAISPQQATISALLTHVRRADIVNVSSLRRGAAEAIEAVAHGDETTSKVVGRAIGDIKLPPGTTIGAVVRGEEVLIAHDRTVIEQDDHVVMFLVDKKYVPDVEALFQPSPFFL

[3] = molecular target: isolated TrkA from Vibrio parahaemolyticus (Vibrio parahaemolyticus)
[4] = molecular target: the molecule itself; test: crystal structure

“TrkA from Vibrio parahaemolyticus, co-expressed with TrkH (natural protein)” showed a stoichiometry N [1] of 4.

In the case of `Nc1ncnc2c1ncn2[C@@H]1O[C@H](COP(=O)(O)OP(=O)(O)OP(O)(O)=S)[C@@H](O)[C@H]1O` [ATPγS, adenosine 5′-O-(3-thiotriphosphate)], the “co-crystal structure, 3.05 Å” value [2] is reported as “Each protomer contains two large densities consistent with ATPγS molecules”.

With “isolated TrkA from Vibrio parahaemolyticus (natural protein)” the stoichiometry N [3] was 4.

B1: TrkH from Vibrio parahaemolyticus (natural protein)
chain: MQFRSIIRIVGLLLALFSVTMLAPALVALLYRDGAGVPFVTTFFVLLFCGAMCWFPNRRHKHELKSRDGFLIVVLFWTVLGSAGSLPFLIADNPNISVTDAFFESFSALTTTGATVIVGLDELPKAILFYRQFLQWFGGMGIIVLAVAILPVLGIGGMQLYRAEIPGPVKDTKMTPRIAETAKALWYIYLSLTIACAVAFWLAGMTPFDAISHSFSTIAIGGFSTHDASMGYFDSYAINLITVVFLLISACNFTLHFAAFASGGVHPKYYWKDPEFRAFIFIQVLLFLVCFLLLLKHHSYTSPYDAFDQALFQTVSISTTAGFTTTGFADWPLFLPVLLLFSSFIGGCAGSTGGGMKVIRILLLTLQGARELKRLVHPRAVYTIKVGGSALPQRVVDAVWGFFSAYALVFVVCMLGLIATGMDELSAFSAVAATLNNLGPGLGEVALHFGDVNDKAKWVLIVSMLFGRLEIFTLLILLTPTFWRS
With B1 the “stoichiometry N” value [4] was 2.
